From patent US20180149638A1 come the findings set out here.

The target in the experiment is pBIND-ASK1N (DNA binding domain fused to ASK1 N-terminal 1-678 aa, CheckMate mammalian two-hybrid system) (Homo sapiens (Human)) (UniProt Q99683). The experiment can be described thus: cell-based or functional assay.
Chain of UniProt Q99683 (Q99683 other isoform, or with tags, fused parts or gaps limits assumed, form in doubt): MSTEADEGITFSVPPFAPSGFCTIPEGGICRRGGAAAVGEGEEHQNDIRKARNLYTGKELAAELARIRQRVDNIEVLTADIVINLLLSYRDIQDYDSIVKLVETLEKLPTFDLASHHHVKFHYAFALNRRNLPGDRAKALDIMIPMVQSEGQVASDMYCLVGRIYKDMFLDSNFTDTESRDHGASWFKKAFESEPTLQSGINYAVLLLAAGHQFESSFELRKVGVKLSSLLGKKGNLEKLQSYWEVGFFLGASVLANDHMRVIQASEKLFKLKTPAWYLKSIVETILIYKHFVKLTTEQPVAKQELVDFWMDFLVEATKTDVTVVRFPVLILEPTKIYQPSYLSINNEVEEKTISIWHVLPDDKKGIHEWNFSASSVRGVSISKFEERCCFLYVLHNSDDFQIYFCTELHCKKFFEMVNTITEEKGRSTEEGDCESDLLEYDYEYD

For “pACT-ASK1N (transcriptional activation domain fused to ASK1 N-terminal 1-678 aa, CheckMate mammalian two-hybrid system) (from UniProt Q99683 1-678)”, the ratio of RLU value of firefly luciferase to RLU value of Renilla luciferase, group A (no peptide) is 1.9.
